# Measured values published in the supplement of paper PMC9112550, “Optimization of the antimicrobial peptide Bac7 by deep mutational scanning” (BMC Biology, 2022).
# Tested on: Escherichia coli TOP10
# Experiment: shrunken log2 fold change of peptide-encoding DNA abundance (4.5 h post-induction vs induction); higher = less antimicrobial activity (less host growth inhibition)
# Details: time post-induction: 4.5 h; library: site-saturation at positions 5, 18, 19, 20
# 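Note: peptides expressed intracellularly from a pBAD plasmid library in pooled LB shake-flask culture, induced with 0.3% L-arabinose, DNA abundance read by NGS, three biological replicates, DESeq2 with apeglm shrinkage.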
row,Sequence,shrunken log2 fold change
1,RRIRWRPPRLPRPRPRPHADPRP,0.708
2,RRIRDRPPRLPRPRPRPRPWPRP,0.25
3,RRIRKRPPRLPRPRPRPSIIPRP,-0.221
4,RRIRGRPPRLPRPRPRPCLFPRP,0.346
5,RRIRHRPPRLPRPRPRPEPSPRP,0.137
6,RRIRRRPPRLPRPRPRPEKDPRP,0.0399
7,RRIRVRPPRLPRPRPRPRDWPRP,0.274
8,RRIRDRPPRLPRPRPRPYTWPRP,0.00489
9,RRIRERPPRLPRPRPRPTIMPRP,-0.959
10,RRIRIRPPRLPRPRPRPSHMPRP,-0.425
11,RRIRKRPPRLPRPRPRPTECPRP,0.119
12,RRIRFRPPRLPRPRPRPDIYPRP,-0.0949
13,RRIRGRPPRLPRPRPRPVVFPRP,0.56
14,RRIRTRPPRLPRPRPRPAINPRP,0.0461
15,RRIRMRPPRLPRPRPRPHYDPRP,-0.135
16,RRIRIRPPRLPRPRPRPLCPPRP,-0.502
17,RRIRNRPPRLPRPRPRPLAAPRP,0.568
18,RRIRERPPRLPRPRPRPAQEPRP,0.597
19,RRIRLRPPRLPRPRPRPMCVPRP,-0.231
20,RRIRQRPPRLPRPRPRPVQYPRP,-0.0137
21,RRIRARPPRLPRPRPRPCDPPRP,-0.106
22,RRIRFRPPRLPRPRPRPLANPRP,0.0332
23,RRIRVRPPRLPRPRPRPNHRPRP,-0.199
24,RRIRARPPRLPRPRPRPVGSPRP,0.383
25,RRIRMRPPRLPRPRPRPHQWPRP,0.121

row,Sequence,shrunken log2 fold change
1,RRIRLRPPRLPRPRPRPHNGPRP,-0.00962
2,RRIRVRPPRLPRPRPRPTNQPRP,0.0229
3,RRIRSRPPRLPRPRPRPQYTPRP,-0.983
4,RRIRVRPPRLPRPRPRPYSMPRP,-0.692
5,RRIRHRPPRLPRPRPRPNHRPRP,-0.0366
6,RRIRTRPPRLPRPRPRPFHIPRP,0.0392
7,RRIRIRPPRLPRPRPRPRDFPRP,-0.157
8,RRIRKRPPRLPRPRPRPVDQPRP,0.766
9,RRIRFRPPRLPRPRPRPFSMPRP,-0.232
10,RRIRYRPPRLPRPRPRPNYGPRP,-0.0594
11,RRIRMRPPRLPRPRPRPGHHPRP,0.209
12,RRIRPRPPRLPRPRPRPNMKPRP,-0.52
13,RRIRWRPPRLPRPRPRPQPYPRP,-0.166
14,RRIRWRPPRLPRPRPRPTKTPRP,0.0481
15,RRIRQRPPRLPRPRPRPLNTPRP,-0.937
16,RRIRPRPPRLPRPRPRPSKAPRP,-0.175
17,RRIRFRPPRLPRPRPRPAAAPRP,0.551
18,RRIRARPPRLPRPRPRPIMIPRP,-0.261
19,RRIRTRPPRLPRPRPRPALEPRP,0.122
20,RRIRDRPPRLPRPRPRPQPMPRP,-0.0809
21,RRIRGRPPRLPRPRPRPYWWPRP,-0.0995
22,RRIRIRPPRLPRPRPRPTQWPRP,-0.136
23,RRIRLRPPRLPRPRPRPANYPRP,-0.032
24,RRIRPRPPRLPRPRPRPHVIPRP,-0.617
25,RRIRERPPRLPRPRPRPVDHPRP,-0.195

row,Sequence,shrunken log2 fold change
1,RRIRCRPPRLPRPRPRPIHAPRP,-0.0479
2,RRIRSRPPRLPRPRPRPGCLPRP,0.0602
3,RRIRIRPPRLPRPRPRPRAVPRP,0.314
4,RRIRDRPPRLPRPRPRPKHDPRP,-0.16
5,RRIRVRPPRLPRPRPRPGVRPRP,0.188
6,RRIRFRPPRLPRPRPRPCRQPRP,0.229
7,RRIRFRPPRLPRPRPRPGPSPRP,0.764
8,RRIRPRPPRLPRPRPRPGMYPRP,-0.0544
9,RRIRLRPPRLPRPRPRPHDKPRP,0.0709
10,RRIRWRPPRLPRPRPRPTWFPRP,-0.0378
11,RRIRLRPPRLPRPRPRPQCPPRP,-0.266
12,RRIRWRPPRLPRPRPRPNSDPRP,-0.258
13,RRIRCRPPRLPRPRPRPLAPPRP,0.268
14,RRIRKRPPRLPRPRPRPSGFPRP,0.161
15,RRIRQRPPRLPRPRPRPYHKPRP,0.0375
16,RRIRERPPRLPRPRPRPDGCPRP,0.0163
17,RRIRWRPPRLPRPRPRPLEKPRP,0.429
18,RRIRWRPPRLPRPRPRPQLPPRP,-0.00654
19,RRIRYRPPRLPRPRPRPERIPRP,-0.21
20,RRIRCRPPRLPRPRPRPIILPRP,-0.354
21,RRIRERPPRLPRPRPRPGRFPRP,0.0216
22,RRIRCRPPRLPRPRPRPYAHPRP,-0.189
23,RRIRQRPPRLPRPRPRPEECPRP,-0.0135
24,RRIRDRPPRLPRPRPRPLAGPRP,0.121
25,RRIRYRPPRLPRPRPRPDEPPRP,-0.0449

row,Sequence,shrunken log2 fold change
1,RRIRPRPPRLPRPRPRPLNFPRP,-0.139
2,RRIRARPPRLPRPRPRPLEKPRP,0.439
3,RRIRNRPPRLPRPRPRPSISPRP,-0.256
4,RRIRIRPPRLPRPRPRPNLQPRP,-0.285
5,RRIRCRPPRLPRPRPRPICQPRP,-0.0542
6,RRIRERPPRLPRPRPRPNPVPRP,-0.424
7,RRIRERPPRLPRPRPRPANDPRP,-0.0189
8,RRIRIRPPRLPRPRPRPTTTPRP,-0.00987
9,RRIRTRPPRLPRPRPRPFVRPRP,-1.25
10,RRIRWRPPRLPRPRPRPAIFPRP,0.327
11,RRIRLRPPRLPRPRPRPANDPRP,0.0379
12,RRIRERPPRLPRPRPRPELSPRP,0.314
13,RRIRQRPPRLPRPRPRPLCWPRP,-0.0481
14,RRIRERPPRLPRPRPRPRYNPRP,-0.672
15,RRIRKRPPRLPRPRPRPPYCPRP,0.0662
16,RRIRLRPPRLPRPRPRPYQEPRP,-0.46
17,RRIRLRPPRLPRPRPRPGNLPRP,-0.137
18,RRIRARPPRLPRPRPRPDLHPRP,0.474
19,RRIRHRPPRLPRPRPRPNWDPRP,-0.332
20,RRIRTRPPRLPRPRPRPPGSPRP,0.00863
21,RRIRPRPPRLPRPRPRPCWAPRP,0.21
22,RRIRPRPPRLPRPRPRPIIVPRP,-0.178
23,RRIRHRPPRLPRPRPRPHWSPRP,-0.205
24,RRIRGRPPRLPRPRPRPDQWPRP,0.665
25,RRIRDRPPRLPRPRPRPNWKPRP,-0.0238

row,Sequence,shrunken log2 fold change
1,RRIRERPPRLPRPRPRPRDDPRP,0.0953
2,RRIRPRPPRLPRPRPRPTTEPRP,0.109
3,RRIRGRPPRLPRPRPRPVNSPRP,0.0202
4,RRIRIRPPRLPRPRPRPINKPRP,-1.11
5,RRIRARPPRLPRPRPRPQRTPRP,0.11
6,RRIRSRPPRLPRPRPRPSIAPRP,-0.167
7,RRIRFRPPRLPRPRPRPEDEPRP,0.0432
8,RRIRARPPRLPRPRPRPPIFPRP,0.25
9,RRIRHRPPRLPRPRPRPDSVPRP,-0.117
10,RRIRVRPPRLPRPRPRPMGRPRP,-0.0203
11,RRIRIRPPRLPRPRPRPFLKPRP,-0.341
12,RRIRLRPPRLPRPRPRPPEHPRP,0.188
13,RRIRPRPPRLPRPRPRPCEHPRP,0.099
14,RRIRERPPRLPRPRPRPQYFPRP,-0.891
15,RRIRTRPPRLPRPRPRPGPYPRP,-0.159
16,RRIRFRPPRLPRPRPRPLRMPRP,0.0542
17,RRIRIRPPRLPRPRPRPVEVPRP,0.0961
18,RRIRVRPPRLPRPRPRPCHEPRP,-0.378
19,RRIRRRPPRLPRPRPRPAVLPRP,-0.00596
20,RRIRQRPPRLPRPRPRPSLTPRP,0.133
21,RRIRRRPPRLPRPRPRPKMEPRP,0.282
22,RRIRSRPPRLPRPRPRPKQPPRP,0.0683
23,RRIRIRPPRLPRPRPRPRLSPRP,-0.325
24,RRIRDRPPRLPRPRPRPEREPRP,-0.0248
25,RRIRFRPPRLPRPRPRPFANPRP,-0.124

row,Sequence,shrunken log2 fold change
1,RRIRQRPPRLPRPRPRPELNPRP,0.0915
2,RRIRARPPRLPRPRPRPNTIPRP,-0.0317
3,RRIRCRPPRLPRPRPRPDLVPRP,-0.0994
4,RRIRYRPPRLPRPRPRPFPEPRP,-0.423
5,RRIRPRPPRLPRPRPRPLKTPRP,-0.000587
6,RRIRGRPPRLPRPRPRPQHFPRP,0.139
7,RRIRRRPPRLPRPRPRPWHDPRP,0.0389
8,RRIRERPPRLPRPRPRPDAVPRP,-0.0146
9,RRIRCRPPRLPRPRPRPALDPRP,0.356
10,RRIRQRPPRLPRPRPRPPHFPRP,0.00908
11,RRIRQRPPRLPRPRPRPGIKPRP,-1.89e-05
12,RRIRYRPPRLPRPRPRPCPLPRP,-1.91
13,RRIRCRPPRLPRPRPRPVSLPRP,-0.379
14,RRIRMRPPRLPRPRPRPESAPRP,2.73
15,RRIRNRPPRLPRPRPRPPRAPRP,0.658
16,RRIRTRPPRLPRPRPRPQAVPRP,-0.111
17,RRIRNRPPRLPRPRPRPCWIPRP,-0.00906
18,RRIRPRPPRLPRPRPRPSPGPRP,0.0372
19,RRIRCRPPRLPRPRPRPAYHPRP,-0.436
20,RRIRWRPPRLPRPRPRPQSFPRP,-0.108
21,RRIRSRPPRLPRPRPRPWGQPRP,0.0926
22,RRIRERPPRLPRPRPRPPLFPRP,0.124
23,RRIRCRPPRLPRPRPRPCRVPRP,-0.438
24,RRIRMRPPRLPRPRPRPQWRPRP,1.5
25,RRIRSRPPRLPRPRPRPSQRPRP,-0.0585
